Source: PMC4627082, “MCM ring hexamerization is a prerequisite for DNA-binding” (Nucleic Acids Research, 2015)

B1: PfMCMN-βT (1–256; K233A; R234A; K236A) (domain or fragment, Pyrococcus furiosus, UniProt Q8U3I4 1-256, looked up)
chain: MDREEMIERFANFLREYTDEDGNPVYRGKITDLLTITPKRSVAIDWMHLNSFDSELAHEVIENPEEGISAAEDAIQIVLREDFQREDVGKIHARFYNLPETLMVKDIGAEHINKLIQVEGIVTRVGEIKPFVSVAVFVCKDCGHEMIVPQKPYESLEKVKKCEQCGSKNIELDVNKSSFVNFQSFRIQDRPETLKGGEMPRFIDGILLDDIVDVALPGDRVIVTGILRVVLEAAEATPIFRKILEVNHIEPVSKEI
notes: Minichromosome Maintenance (MCM) protein of Pyrococcus furiosus, N-terminal domain, residues 1-256, with three alanine mutations of the β-turn; Made by site-directed mutagenesis of the PfMCMN-WT SUMO-fusion construct; SUMO removed by Ulp1; also called β-turn triple mutant; pCF076.1

Columns and labels:
[1] = biological target: PfMCMN-WT (residues 1–256), amino-terminal domain of Pyrococcus furiosus MCM (Pyrococcus furiosus) (UniProt Q8U3I4); test: AUC; sedimentation velocity at the highest PfMCMN-WT concentration (350 μM), co-interpreted with sedimentation equilibrium; 20°C, 20 mM HEPES pH 7.6, 200 mM NaCl, 5 mM β-mercaptoethanol
[2] = biological target: PfMCMN-WT (residues 1–256), amino-terminal domain of Pyrococcus furiosus MCM (Pyrococcus furiosus) (UniProt Q8U3I4); test: AUC; sedimentation velocity, 20°C, 50 000 rpm, 20 mM HEPES pH 7.6, 200 mM NaCl, 5 mM β-mercaptoethanol, interference and absorbance optics, c(s) distributions; isotherm of signal-average s-values fitted to monomer-hexamer self-association; some WT samples with 40-mer oligo-dT ssDNA (T40)
[3] = biological target: PfMCMN-WT (residues 1–256), amino-terminal domain of Pyrococcus furiosus MCM (Pyrococcus furiosus) (UniProt Q8U3I4); test: AUC; sedimentation equilibrium of apoproteins, 12-51 μM, 20°C, 20 mM HEPES pH 7.6, 200 mM NaCl, 5 mM β-mercaptoethanol, absorbance 280 nm; reversible monomer-hexamer (WT, hexamer to monomers) or monomer-pentamer (βT, pentamer to monomers) model; the constant is the protein concentration where half of the protein is monomeric
[4] = biological target: the molecule itself; test: SEC; final size-exclusion chromatography step of purification; elution volume compared with PfMCMN-WT
[5] = biological target: the molecule itself; test: AUC; sedimentation velocity, 20°C, 50 000 rpm, 20 mM HEPES pH 7.6, 200 mM NaCl, 5 mM β-mercaptoethanol, interference and absorbance optics, c(s) distributions; isotherm of signal-average s-values fitted to monomer-hexamer self-association; some WT samples with 40-mer oligo-dT ssDNA (T40)
[6] = biological target: the molecule itself; test: AUC; sedimentation equilibrium of apoproteins, 12-51 μM, 20°C, 20 mM HEPES pH 7.6, 200 mM NaCl, 5 mM β-mercaptoethanol, absorbance 280 nm; reversible monomer-hexamer (WT, hexamer to monomers) or monomer-pentamer (βT, pentamer to monomers) model; the constant is the protein concentration where half of the protein is monomeric

Row | Molecule | stoichiometry N [1] | Kd [2] | percent hexamer at 15 μM with T40 ssDNA [2] | percent hexamer at 38 μM with T40 ssDNA [2] | percent hexamer at 45 μM with T40 ssDNA [2] | percent hexamer at 128 μM with T40 ssDNA [2] | percent of protein in the hexameric fraction at 76 μM [2] | percent of protein in the hexameric fraction at 180 μM [2] | stoichiometry N [2] | Kd [3] | stoichiometry N [4] | stoichiometry N [5] | Kd [6]
1 | PfMCMN-WT (residues 1–256), amino-terminal domain of Pyrococcus furiosus MCM (from UniProt Q8U3I4 1-256) (domain or fragment) | 12 | 58 µM | 55% | 72% | 72% | 82% | 37% | 60% | 6 | 60 µM | – | – | –
2 | B1 | – | – | – | – | – | – | – | – | – | – | ~3 | 5 | 8 µM
